Assay results taken from US8367390B2, “Galactanase variants” (Novozymes A/S, priority 2002, dated 2013).

Test: Activity with ONPG, release of o-nitrophenol (ONP) at 405 nm
Type: biochemical
Method: The activity of HIGAL and MTGAL with ONPG was tested by mixing 200 microliters (normally 5.5 mg/ml) ONPG in 50 mM sodium acetate, 1 mM CaCl2, 0.01% Triton X-100, pH 6.5 with 25 microliters galactanase (normally 1 mg/ml) in the well of a microtiter plate. Release of o-nitrophenol (ONP) was measured at room temperature at 405 nm every 10 seconds normally for 30 min on a SpectraMaxPlus (Molecular Devices). Effects on the observed release of ONP was studied with varied enzyme concentration, ONPG concentration and with addition of galactose (Gal), beta-1,4-galactobiose (Gal2) (Megazyme), beta-1,4-galactotriose (Gal3), beta-1,4-galactotetraose (Gal4), glucose (Glu), arabinose (Ara), galacturonic acid (GalA), maltose (Mal) or maltotriose (Mal3).
In Tables 8-11 below, incubation times required to increase the observed absorbance at 405 nm by given amounts are listed. Cells marked ‘n.r.’ indicate that the increase in absorbance was not reached in the experiment. In general, the initial increase in absorbance at 405 nm was very slow, but after a lag phase the rate of ONP release often increased drastically—often approximately exponentially. The most likely explanation for the observed kinetics is that ONPG reacts with the enzyme to give an enzyme-galactosyl intermediate which hydrolyses very slowly. Instead, the Gal of the intermediate is released by transglycosylation, initially with ONPG or added sugar as acceptor. In cases where the rate of ONP release increases, these transglycosylation products are even better acceptors than the initial ones. […] More likely, Gal inhibits the subsequent transglycosylation, which requires binding of ONPG to the +1 and +2 subsites, e.g., by binding to the +2 subsite. With 50 mg/ml Gal added (results not shown) release of ONP was even slower with only insignificant increase of absorbance at 405 nm in 30 min.

[1] = Table 8, enzyme 28 μg/ml, ONPG 5 mg/ml, no sugar
[2] = Table 8, enzyme 55 μg/ml, ONPG 5 mg/ml, Gal 5 mg/ml
[3] = Table 8, enzyme 55 μg/ml, ONPG 5 mg/ml, no sugar
[4] = Table 8, enzyme 110 μg/ml, ONPG 5 mg/ml, Gal 5 mg/ml
[5] = Table 8, enzyme 110 μg/ml, ONPG 5 mg/ml, no sugar
[6] = Table 9, enzyme 110 μg/ml, ONPG 1.25 mg/ml
[7] = Table 9, enzyme 110 μg/ml, ONPG 2.5 mg/ml
[8] = Table 9, enzyme 110 μg/ml, ONPG 5 mg/ml
[9] = Table 9, enzyme 110 μg/ml, ONPG 10 mg/ml
[10] = Table 10, enzyme 110 μg/ml, ONPG 5 mg/ml, Gal2 0.05 mg/ml
[11] = Table 10, enzyme 110 μg/ml, ONPG 5 mg/ml, Gal2 0.5 mg/ml
[12] = Table 10, enzyme 110 μg/ml, ONPG 5 mg/ml, Gal3 0.05 mg/ml

B1: HIGAL: GH Family 53 galactanase from Humicola insolens, SEQ ID NO: 2 (wild type parent) (protein, listed as Humicola insolens)
chain: ALQYKGVDWSSVMVEERAGVRYKNVNGQEKPLEYILAENGVNMVRQRVWVNPWDGNYNLDYNIQLARRAKAAGLGLYINFHYSDTWADPAHQTTPAGWPSDINNLAWKLYNYTLDSMNRFADAGIQVDIVSIGNEITQGLLWPLGKTNNWYNIARLLHSAAWGVKDSRLNPKPKIMVHLDNGWNWDTQNWWYTNVLSQGPFEMSDFDMMGVSFYPFYSASATLDSLRRSLNNMVSRWGKEVAVVETNWPTSCPYPRYQFPADVRNVPFSAAGQTQYIQSVANVVSSVSKGVGLFYWEPAWIHNANLGSSCADNTMFTPSGQALSSLSVFHRI
modifications: mat_peptide (1)..()
- Effect of Ara on ONP release (Ara 5 mg/ml): about three times slower ONP release
- Slowing of ONP release by addition of Gal (Gal 5 mg/ml): a factor of three
- Effect of GalA on ONP release (GalA 5 mg/ml): weak inhibitory effect
- Effect of GalA on ONP release (GalA 50 mg/ml): slows ONP release by about a factor two
- Effect of Glu on ONP release (Glu 5 mg/ml): slight inhibitory effect
- ONP release in 30 min (Glu 50 mg/ml, results not shown): < 0.02
- Effect of Mal or Mal3 on ONP release (Mal or Mal3 5 mg/ml): no significant effects on ONP release
- ONP release compared at identical enzyme dosage (Table 8): faster than MTGAL
- Time (min) to increase A405 by: 0.025 [1]: 41.4 min
- Time (min) to increase A405 by: 0.05 [1]: 46.5 min
- Time (min) to increase A405 by: 0.1 [1]: 51.0 min
- Time (min) to increase A405 by: 0.2 [1]: 56.5 min
- Time (min) to increase A405 by: 0.4 [1]: n.r.
- Time (min) to increase A405 by: 0.8 [1]: n.r.
- Time (min) to increase A405 by: 1.6 [1]: n.r.
- Time (min) to increase A405 by: 3.2 [1]: n.r.
- Time (min) to increase A405 by: 0.025 [2]: 57.0 min
- Time (min) to increase A405 by: 0.05 [2]: n.r.
- Time (min) to increase A405 by: 0.1 [2]: n.r.
- Time (min) to increase A405 by: 0.2 [2]: n.r.
- Time (min) to increase A405 by: 0.4 [2]: n.r.
- Time (min) to increase A405 by: 0.8 [2]: n.r.
- Time (min) to increase A405 by: 1.6 [2]: n.r.
- Time (min) to increase A405 by: 3.2 [2]: n.r.
- Time (min) to increase A405 by: 0.025 [3]: 20.4 min
- Time (min) to increase A405 by: 0.05 [3]: 22.9 min
- Time (min) to increase A405 by: 0.1 [3]: 25.4 min
- Time (min) to increase A405 by: 0.2 [3]: 28.0 min
- Time (min) to increase A405 by: 0.4 [3]: 30.9 min
- Time (min) to increase A405 by: 0.8 [3]: 32.0 min
- Time (min) to increase A405 by: 1.6 [3]: 35.0 min
- Time (min) to increase A405 by: 3.2 [3]: 37.9 min
- Time (min) to increase A405 by: 0.025 [4]: 32.0 min
- Time (min) to increase A405 by: 0.05 [4]: 35.7 min
- Time (min) to increase A405 by: 0.1 [4]: 41.5 min
- Time (min) to increase A405 by: 0.2 [4]: 46.7 min
- Time (min) to increase A405 by: 0.4 [4]: 52.7 min
- Time (min) to increase A405 by: 0.8 [4]: 59.0 min
- Time (min) to increase A405 by: 1.6 [4]: n.r.
- Time (min) to increase A405 by: 3.2 [4]: n.r.
- Time (min) to increase A405 by: 0.025 [5]: 9.0 min
- Time (min) to increase A405 by: 0.05 [5]: 10.3 min
- Time (min) to increase A405 by: 0.1 [5]: 11.5 min
- Time (min) to increase A405 by: 0.2 [5]: 12.7 min
- Time (min) to increase A405 by: 0.4 [5]: 13.8 min
- Time (min) to increase A405 by: 0.8 [5]: 15.0 min
- Time (min) to increase A405 by: 1.6 [5]: 15.0 min
- Time (min) to increase A405 by: 3.2 [5]: 17.7 min
- Time (min) to increase A405 by: 0.025 [6]: 28.7 min
- Time (min) to increase A405 by: 0.05 [6]: n.r.
- Time (min) to increase A405 by: 0.1 [6]: n.r.
- Time (min) to increase A405 by: 0.2 [6]: n.r.
- Time (min) to increase A405 by: 0.4 [6]: n.r.
- Time (min) to increase A405 by: 0.8 [6]: n.r.
- Time (min) to increase A405 by: 1.6 [6]: n.r.
- Time (min) to increase A405 by: 3.2 [6]: n.r.
- Time (min) to increase A405 by: 0.025 [7]: 9.7 min
- Time (min) to increase A405 by: 0.05 [7]: 11.3 min
- Time (min) to increase A405 by: 0.1 [7]: 12.7 min
- Time (min) to increase A405 by: 0.2 [7]: 14.0 min
- Time (min) to increase A405 by: 0.4 [7]: 15.5 min
- Time (min) to increase A405 by: 0.8 [7]: 17.3 min
- Time (min) to increase A405 by: 1.6 [7]: 19.5 min
- Time (min) to increase A405 by: 3.2 [7]: 22.8 min
- Time (min) to increase A405 by: 0.025 [8]: 6.0 min
- Time (min) to increase A405 by: 0.05 [8]: 8.0 min
- Time (min) to increase A405 by: 0.1 [8]: 9.2 min
- Time (min) to increase A405 by: 0.2 [8]: 10.2 min
- Time (min) to increase A405 by: 0.4 [8]: 11.3 min
- Time (min) to increase A405 by: 0.8 [8]: 12.5 min
- Time (min) to increase A405 by: 1.6 [8]: 13.8 min
- Time (min) to increase A405 by: 3.2 [8]: 15.3 min
- Time (min) to increase A405 by: 0.025 [9]: 6.3 min
- Time (min) to increase A405 by: 0.05 [9]: 7.7 min
- Time (min) to increase A405 by: 0.1 [9]: 8.8 min
- Time (min) to increase A405 by: 0.2 [9]: 10.0 min
- Time (min) to increase A405 by: 0.4 [9]: 11.2 min
- Time (min) to increase A405 by: 0.8 [9]: 12.3 min
- Time (min) to increase A405 by: 1.6 [9]: 13.5 min
- Time (min) to increase A405 by: 3.2 [9]: 14.7 min
- Initial rate (mOD/min) [10]: 2 mOD/min
- Time (min) to increase A405 by: 0.025 [10]: 5.5 min
- Time (min) to increase A405 by: 0.05 [10]: 6.8 min
- Time (min) to increase A405 by: 0.1 [10]: 8.2 min
- Time (min) to increase A405 by: 0.2 [10]: 9.5 min
- Time (min) to increase A405 by: 0.4 [10]: 10.7 min
- Time (min) to increase A405 by: 0.8 [10]: 11.8 min
- Time (min) to increase A405 by: 1.6 [10]: 13.3 min
- Time (min) to increase A405 by: 3.2 [10]: 15.2 min
- Initial rate (mOD/min) [11]: 6 mOD/min
- Time (min) to increase A405 by: 0.025 [11]: 2.7 min
- Time (min) to increase A405 by: 0.05 [11]: 3.5 min
- Time (min) to increase A405 by: 0.1 [11]: 4.8 min
- Time (min) to increase A405 by: 0.2 [11]: 6.0 min
- Time (min) to increase A405 by: 0.4 [11]: 7.2 min
- Time (min) to increase A405 by: 0.8 [11]: 8.3 min
- Time (min) to increase A405 by: 1.6 [11]: 9.7 min
- Time (min) to increase A405 by: 3.2 [11]: 11.0 min
- Initial rate (mOD/min) [12]: 40 mOD/min
- Time (min) to increase A405 by: 0.025 [12]: 0.5 min
- Time (min) to increase A405 by: 0.05 [12]: 1.0 min
- Time (min) to increase A405 by: 0.1 [12]: 1.7 min
- Time (min) to increase A405 by: 0.2 [12]: 2.3 min
- Time (min) to increase A405 by: 0.4 [12]: 3.3 min
- Time (min) to increase A405 by: 0.8 [12]: 4.8 min
- Time (min) to increase A405 by: 1.6 [12]: 6.3 min
- Time (min) to increase A405 by: 3.2 [12]: 7.7 min
